In patent US20060002901A1, “Composition containing eosinophil cationic protein” (priority 2002, published 2006):

Legend:
[1] = tested on: BALB/c 3T3 cells; assay: Proliferation of BALB/c 3T3 cells in low-serum medium, phase-contrast microscopy; assay type: cell-based, mouse; conditions: 0.5% FBS, 1 μM ECP, 60 pM bFGF, 48 hours, FIG. 4
Procedure: In DMEM culture medium containing 10% FBS in a 24-well culture plate, BALB/c 3T3 cells were inoculated at a concentration of 2×10^4 cells/well, and cultured. […] After 24 hours, 1 μM ECP or RNaseA, and 60 pM bFGF were added to the culture solution in combination, respectively, then the culture was continued for an additional 48 hours.

[2] = tested on: BALB/c 3T3 A31-K cells; assay: Proliferation of BALB/c 3T3 cells, number of living cells after 48 hours; assay type: cell-based, mouse; conditions: 10% FBS, FIG. 2
Procedure: In DMEM culture medium containing 10% FBS in a 96-well culture plate, BALB/c 3T3 A31-K cells were inoculated at a concentration of 1000 cells/well, and after 24 hours, ECP or RNaseA was added to the culture solution to a final concentration of 1 μM, respectively. After the culture was continued for 48 hours, the number of living cells was counted.

[3] = tested on: BALB/c 3T3 cells; assay: Time-course proliferation of BALB/c 3T3 cells, living cells counted every 24 hours; assay type: cell-based, mouse; conditions: 10% FBS, 4 days, medium changed on day 2, FIG. 3
Procedure: In DMEM culture medium containing 10% FBS in a 96-well culture plate, BALB/c 3T3 cells were inoculated at a concentration of 1000 cells/well. After the cells were cultured for 24 hours, 1 μM ECP or 1 μM RNaseA was added to the culture solution to a final concentration of […], respectively. The culture was continued for 4 days, and the number of living cells was counted for every 24 hours. Incidentally, the culture medium was changed on day 2 of the culture.

[4] = tested on: myocardial cell derived from newborn rat; assay: Immunofluorescence staining of dedifferentiated myocardial cells; assay type: cell-based; conditions: ECP 100 ng/ml; 24 hours; FIG. 8
Procedure: The cultured myocardial cells were cultured in SFM (2 μM BrDU, 100 units/ml penicillin, 100 μg/ml streptomycin) for 48 hours, whereby the cells were dedifferentiated. Then, the culture medium was changed, and ECP was added to a final concentration of 100 ng/ml. After an additional 24 hours, the cells were washed three times with 1× PBS for 10 minutes each, then dipped in 4% paraformaldehyde at room temperature for 30 minutes, whereby the cells were fixed. Then, the cells were dipped in PBS containing 0.25% Triton-X100 at room temperature for 15 minutes, and reacted in a blocking buffer containing BSA, to which anti-ENH1 antibody had been added at a ratio of 1:40, or anti-α-actinin antibody had been added at a ratio of 1:100, at 4° C. overnight. Then, a 20-minute washing with PBS containing 0.03% Triton-X100 was performed and the washing was repeated three times. To the blocking buffer, Cy3-labeled anti-mouse antibody and Cy2-labeled anti-rabbit IgG antibody were added (1:250 dilution in blocking buffer), respectively, and reaction was performed at 4° C. for 4 hours. After the reaction, a 20-minute washing with PBS containing 0.03% Triton-X100 was performed again and the washing was repeated three times. Then, water content was removed and 90% glycerol was added.

[5] = tested on: MC3T3-E1 cells; assay: Alkali phosphatase (ALP) activity in osteoblast-like cells; assay type: cell-based, rat; conditions: ECP at 1 ng/ml vs BMP-4 100 ng/ml, 72 hours, FIG. 12
Procedure: MC3T3-E1 cells were inoculated into α-MEM medium in a 24-well culture plate, and ECP (at a final concentration of 1 ng, 10 ng, 100 ng or 1 μg per ml), BMP-4 (100 ng/ml) or bFGF (100 ng/ml) was added. After 72 hours, the cells were washed with 10 mM Tris-HCl (pH 7.2) solution twice, and lysed in 10 mM Tris-HCl (pH 7.2) solution containing 0.1% Triton-X100. Then, the cell lysis solution was subjected to sonication treatment for 15 seconds to homoginize the cells. Then, 100 μl of the homogenized cell solution and 0.1 M aminomethyl propanol were mixed with 100 μl of a substrate solution (4 mg/ml p-nitorophenyl phosphate and 2 mM MgCl2) adjusted at pH 10.5, and they were reacted with each other at 37° C. for 30 minutes. The reaction was terminated with 0.5 M NaOH, and the absorbance at 410 nm was measured. The obtained value was divided by the total amount of proteins in the homogenized cell solution, whereby the specific activity was calculated.

[6] = tested on: human umbilical vessel endothelial cell line (HUVEC); assay: Proliferation of cell lines derived from normal tissue, 10% FBS, MTT; assay type: cell-based; conditions: ECP 0 to 10 μM, 48 hours, FIG. 1
Procedure: (§1) The effects of ECP on the proliferation of a mouse fibroblast cell line (BALB/c 3T3), aortic smooth muscle cell line (A10), mouse mammary epithelial cell line (HC-11) and human umbilical vessel endothelial cell line (HUVEC) were analyzed in the presence of 10% FBS. First, in DMEM culture medium containing 10% FBS in a 96-well culture plate, each cell line was inoculated at a concentration of 500 cells/well. Then, the cells were cultured for 24 hours in an incubator in which CO2 was maintained at 5%. Then, the respective concentrations of ECP and RNaseA (0 to 10 μM) were added, and the culture was continued for 48 hours in the same incubator. Then, 3-(4,5-dimethylthiazol-2-yl)-diphenyl-tetrazolium bromide (MTT) was added, and the proliferation rate of each cell line was obtained.

[7] = tested on: mouse mammary epithelial cell line (HC-11); assay: as above; assay type: cell-based; conditions: ECP 0 to 10 μM, 48 hours, FIG. 1
Procedure: as §1

[8] = tested on: mouse fibroblast cell line (BALB/c 3T3); assay: as above; assay type: cell-based; conditions: ECP 0 to 10 μM, 48 hours, FIG. 1
Procedure: as §1

[9] = tested on: aortic smooth muscle cell line (A10); assay: as above; assay type: cell-based; conditions: ECP 0 to 10 μM, 48 hours, FIG. 1
Procedure: as §1

[10] = tested on: PC12 cells; assay: Survival of nerve like PC12 cells in serum-free medium, Cell Titer-Glo; assay type: cell-based; conditions: serum-free DMEM, 72 hours, ECP 10 and 1000 ng/ml, FIG. 11
Procedure: PC12 cells were cultured overnight in a 96-well culture plate at 1×10^4 cells/well/100 μl. As the culture medium, DMEM culture medium containing 10% FBS, penicillin, and streptomycin was used. Then, washing was performed once with 150 μl of DMEM, and the medium was changed to DMEM culture medium containing 100 μl of ECP, penicillin, and streptomycin. After cells were cultured for 72 hours, the number of living cells was counted using Cell Titer-GloTM Luminescent Cell Viability Assay (No. G7570; Promega).

[11] = tested on: BALB/c 3T3 cells; assay: Cytoskeletal molecule (stress fiber) formation in low-serum medium, confocal immunostaining; assay type: cell-based, mouse; conditions: 0.5% FBS, 1 μM ECP, 6 hours, FIG. 5
Procedure: A round cover glass with a diameter of 15 mm which had been sterilized in advance was placed in a 24-well culture plate, 1× phosphate buffer (PBS) containing 0.1% gelatin was added to each well so that the cover glass was sufficiently dipped in the solution. Then, the plate was left at room temperature for 30 minutes, whereby the cover glass was coated with gelatin. Then, each well was filled with DMEM culture medium containing 10% FBS, and BALB/c 3T3 cells were inoculated at a concentration of 2×10^4 cells/well and cultured. […] After an additional 24 hours, 1 μM ECP or RNaseA was added to the culture solution, respectively. After 6 hours, the cover glass on which BALB/c 3T3 cells were grown, was taken out from the well, washed 2 to 3 times with 1× PBS, then dipped in 4% formaldehyde (Wako Pure Chemical Industries, Ltd.) at room temperature for 10 minutes, whereby the cells were fixed. Then, the cover glass was washed 2 to 3 times with 1× PBS, dipped in 1× PBS containing 0.1% Trton-X100 for 10 minutes, whereby the cell membranes were lysed. Then, the cover glass was washed 2 to 3 times with 1× PBS, dipped in 0.5% BSA/PBS and left at room temperature for 30 minutes, whereby a nonspecific adsorption region was blocked with BSA in this operation. […]

[12] = tested on: myocardial cell derived from newborn rat; assay: Number of heartbeats of myocardial cells; assay type: cell-based; conditions: ECP 10 ng, 100 ng or 1 μg per ml; 24 hours; FIG. 9
Procedure: Myocardial cells isolated from a newborn rat were dedifferentiated in the same manner as in Example 7 and ECP was added to the culture solution (10 ng, 100 ng or 1 μg per ml). Twenty-four hours after the addition, the number of heartbeats was counted.
Further, the effects of a ROCK inhibitor (Y27632) on the effects of ECP on increase in the number of heartbeats of myocardial cell were studied. The adding amounts of Y27632 were set at 0, 5, 10 and 15 μM, and the ECP concentration was set at 100 ng/ml.

Molecule | cell proliferation in low-serum medium (phase-contrast observation) [1] | cell proliferation (number of living cells) [2] | time-course cell proliferation (number of living cells) [3] | effect on cardiac hypertrophy in myocardial cell (immunofluorescence staining) [4] | ALP activity (specific activity, control = 100%) [5] | cell proliferation (proliferation rate, MTT) [6] | cell proliferation (proliferation rate, MTT) [7] | cell proliferation (proliferation rate, MTT) [8] | cell proliferation (proliferation rate, MTT) [9] | survival of nerve cells (number of living cells) [10] | formation of cytoskeletal molecules (stress fibers) [11] | number of heartbeats of myocardial cell [12]
bFGF: bFGF, added at 60 pM to low-serum culture | The cells were proliferated |  |  |  |  |  |  |  |  |  |  | 
eosinophil cationic protein (protein, UniProt P12724 28-160, looked up) Eosinophil cationic protein: RPPQFTRAQWFAIQHISLNPPRCTIAMRAINNYRWRCKNQNTFLRTTFANVVNVCGNQSIRCPHNRTLNNCHRSRFRVPLLHCDLINPGAQNISNCTYADRPGRRFYVVACDNRDPRDSPRYPVVPVHLDTTI |  | significantly promoted the cell proliferation at any concentration | the proliferation of cells was significantly promoted | an effect of ECP on cardiac hypertrophy in a myocardial cell was confirmed | equal to or higher than that of BMP-4 | the proliferation was not promoted or the proliferation was inhibited | the proliferation was not promoted or the proliferation was inhibited | the cell proliferation was promoted | the proliferation was not promoted or the proliferation was inhibited | the survival of nerve cells was maintained | increase in the formation of many cytoskeletal molecules (stress fibers) was confirmed | increased in a dose-dependent manner
RNaseA: RNaseA, added as comparison protein alongside ECP (protein, UniProt P61823 27-150, looked up) Ribonuclease pancreatic: KETAAAKFERQHMDSSTSAASSSNYCNQMMKSRNLTKDRCKPVNTFVHESLADVQAVCSQKNVACKNGQTNCYQSYSTMSITDCRETGSSKYPNCAYKTTQANKHIIVACEGNPYVPVHFDASV |  | could not be observed |  |  |  |  |  |  |  |  |  | 
